Test results: PMC13545989

T1: kinesin-1, P33176
T1 chain: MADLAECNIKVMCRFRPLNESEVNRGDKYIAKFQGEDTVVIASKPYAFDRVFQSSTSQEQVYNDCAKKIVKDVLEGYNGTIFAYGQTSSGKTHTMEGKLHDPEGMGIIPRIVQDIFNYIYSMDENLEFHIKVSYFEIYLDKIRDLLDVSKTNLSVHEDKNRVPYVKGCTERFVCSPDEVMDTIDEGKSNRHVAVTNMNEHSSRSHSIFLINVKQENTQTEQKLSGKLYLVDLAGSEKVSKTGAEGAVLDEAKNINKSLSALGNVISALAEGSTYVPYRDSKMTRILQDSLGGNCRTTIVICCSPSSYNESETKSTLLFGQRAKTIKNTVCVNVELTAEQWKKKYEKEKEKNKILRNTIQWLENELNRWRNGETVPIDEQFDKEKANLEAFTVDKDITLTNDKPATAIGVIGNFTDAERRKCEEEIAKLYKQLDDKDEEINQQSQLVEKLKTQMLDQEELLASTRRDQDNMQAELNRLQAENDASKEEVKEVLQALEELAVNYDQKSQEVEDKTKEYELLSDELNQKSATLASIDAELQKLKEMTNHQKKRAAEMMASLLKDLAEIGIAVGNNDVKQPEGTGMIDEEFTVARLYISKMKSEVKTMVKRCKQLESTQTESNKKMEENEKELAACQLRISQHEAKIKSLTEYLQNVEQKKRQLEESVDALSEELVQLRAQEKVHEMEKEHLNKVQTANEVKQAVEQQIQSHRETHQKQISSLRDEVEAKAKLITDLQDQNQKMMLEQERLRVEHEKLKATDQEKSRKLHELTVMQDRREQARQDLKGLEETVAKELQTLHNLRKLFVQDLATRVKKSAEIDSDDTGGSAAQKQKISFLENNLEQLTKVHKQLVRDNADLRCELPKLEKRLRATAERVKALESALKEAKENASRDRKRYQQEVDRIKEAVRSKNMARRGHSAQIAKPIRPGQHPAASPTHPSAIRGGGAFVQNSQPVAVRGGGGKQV


Experiments:
[1] = biological target: TRAK1/mScarlet fusion protein (wild type) (UniProt Q9UPV9); assay: co-IP; FLAG purification of Miro1/FP/FLAG/I3-01 synthetic cargo from hTERT RPE-1 cell lines co-expressing TRAK/mScarlet variants; immunoblot of the associated motor-adaptor components (kinesin, dynein, dynactin); also done after kinesin RNAi (fig. S4E)
kinesin-1, P33176 = biological target: T1, kinesin-1, P33176; assay: FLAG immunoprecipitation of synthetic cargo, immunoblot quantification (anti-KIF5B); conditions: chain shown with the change; IP: flag; hTERT RPE-1 cells; n=4; parent: est. 1.0; read off a plot

fold enrichment versus TRAK2-driven synthetic cargo [1]	ratio to parent (kinesin-1, P33176)	Molecule
20 fold	–	kinesin-1 (from UniProt P33176 1-963) (natural protein)
–	0.46	TRAK2/mScarlet fusion protein (wild type), O60296 F92A; M95A (protein) MSQSQNAIFTSPTGEENLMNSNHRDSESITDVCSNEDLPEVELVSLLEEQLPQYRLKVDTLFLYENQDWTQSPHQRQHASDALSPVLAEETARYAILGTDRVEQMTKTYNDIDMVTHLLAERDRDLELAARIGQALLKRNHVLSEQNESLEEQLGQAFDQVNQLQHELCKKDELLRIVSIASEESETDSSCSTPLRFNESFSLSQGLLQLEMLQEKLKELEEENMALRSKACHIKTETVTYEEKEQQLVSDCVKELRETNAQMSRMTEELSGKSDELIRYQEELSSLLSQIVDLQHKLKEHVIEKEELKLHLQASKDAQRQLTMELHELQDRNMECLGMLHESQEEIKELRSRSGPTAHLYFSQSYGAFTGESLAAEIEGTMRKKLSLDEESSLFKQKAQQKRVFDTVRIANDTRGRSISFPALLPIPGSNRSSVIMTAKPFESGLQQTEDKSLLNQGSSSEEVAGSSQKMGQPGPSGDSDLATALHRLSLRRQNYLSEKQFFAEEWQRKIQVLADQKEGVSGCVTPTESLASLCTTQSEITDLSSASCLRGFMPEKLQIVKPLEGSQTLYHWQQLAQPNLGTILDPRPGVITKGFTQLPGDAIYHISDLEEDEEEGITFQVQQPLEVEEKLSTSKPVTGIFLPPITSAGGPVTVATANPGKCLSCTNSTFTFTTCRILHPSDITQVTPSSGFPSLSCGSSGSSSSNTAVNSPALSYRLSIGESITNRRDSTTTFSSTMSLAKLLQERGISAKVYHSPISENPLQPLPKSLAIPSTPPNSPSHSPCPSPLPFEPRVHLSENFLASRPAETFLQEMYGLRPSRNPPDVGQLKMNLVDRLKRLGIARVVKNPGAQENGRCQEAEIGPQKPDSAVYLNSGSSLLGGLRRNQSLPVIMGSFAAPVCTSSPKMGVLKED
–	0.02	TRAK1/mScarlet fusion protein (wild type), Q9UPV9 L92A; F95A (protein) MALVFQFGQPVRAQPLPGLCHGKLIRTNACDVCNSTDLPEVEIISLLEEQLPHYKLRADTIYGYDHDDWLHTPLISPDANIDLTTEQIEETAKYALLCAERVGQMTKTYNDIDAVTRLLEEKERDLELAARIGQSLLKKNKTLTERNELLEEQVEHIREEVSQLRHELSMKDELLQFYTSAAEESEPESVCSTPLKRNESSSSVQNYFHLDSLQKKLKDLEEENVVLRSEASQLKTETITYEEKEQQLVNDCVKELRDANVQIASISEELAKKTEDAARQQEEITHLLSQIVDLQKKAKACAVENEELVQHLGAAKDAQRQLTAELRELEDKYAECMEMLHEAQEELKNLRNKTMPNTTSRRYHSLGLFPMDSLAAEIEGTMRKELQLEEAESPDITHQKRVFETVRNINQVVKQRSLTPSPMNIPGSNQSSAMNSLLSSCVSTPRSSFYGSDIGNVVLDNKTNSIILETEAADLGNDERSKKPGTPGTPGSHDLETALRRLSLRRENYLSERRFFEEEQERKLQELAEKGELRSGSLTPTESIMSLGTHSRFSEFTGFSGMSFSSRSYLPEKLQIVKPLEGSATLHHWQQLAQPHLGGILDPRPGVVTKGFRTLDVDLDEVYCLNDFEEDDTGDHISLPRLATSTPVQHPETSAHHPGKCMSQTNSTFTFTTCRILHPSDELTRVTPSLNSAPTPACGSTSHLKSTPVATPCTPRRLSLAESFTNTRESTTTMSTSLGLVWLLKERGISAAVYDPQSWDRAGRGSLLHSYTPKMAVIPSTPPNSPMQTPTSSPPSFEFKCTSPPYDNFLASKPASSILREVREKNVRSSESQTDVSVSNLNLVDKVRRFGVAKVVNSGRAHVPTLTEEQGPLLCGPPGPAPALVPRGLVPEGLPLRCPTVTSAIGGLQLNSGIRRNRSFPTMVGSSMQMKAPVTLTSGILMGAKLSKQTSLR
